Three substances from patent US7074905 can be followed below.

Experiment [1] addresses soluble sc-DR2/MBP-Cκ fusion molecule (human kappa constant domain) from pDRHK-transfected CHO cells (human). The experiment in a line: sandwich ELISA, L227 capture, L243-HRP probe; cell line CHOA5. (In general: An ELISA detects its analyte on a solid surface through an enzyme-linked reagent.)
Experiment [2] shares this target. The experiment in a line: sandwich ELISA, L227 capture, L243-HRP probe; cell line CHOE 12.
Experiment [3] shares this target. The experiment in a line: sandwich ELISA, anti-human kappa capture, L243-HRP probe; cell line CHOA5.
The target is the same in experiment [4]. The experiment in a line: sandwich ELISA, anti-human kappa capture, L243-HRP probe; cell line CHOE 12.
In experiment [5] the target is sc-IA^d/OVA-Cκ fusion molecule (sc-IA^d/OVA fused to the mouse kappa constant domain), from pIADK-transfected NSO cells (murine; mouse). The experiment in a line: cell-based or functional assay.
For experiment [6], the target named is sc-IA^d/gD (sc-IA^d fusion protein carrying the gD 246-261 peptide), from insect cells (HSV-1; murine). The experiment in a line: cell-based or functional assay.
For experiment [7], the target named is soluble sc-IA^d/OVA produced in SF9 insect cells (baculovirus) (murine). The experiment in a line: cell-based or functional assay.
Experiment [8] concerns the target soluble sc-IA^d/OVA secreted by SCE1-transfected NSO cells (murine). Briefly: IA^d-specific sandwich ELISA, M5/114 capture, biotin-AMS-32.1 probe; undiluted culture supernatant of E11 (SCE1 transfectant).
The target is the same in experiment [9]. The experiment in a line: IA^d-specific sandwich ELISA, M5/114 capture, biotin-AMS-32.1 probe; undiluted culture supernatant of E10 (SCE1 transfectant).
The target of experiment [10] is soluble sc-IA^d/OVA produced in SF9 insect cells (baculovirus) (murine). The experiment in a line: IA^d-specific sandwich ELISA, M5/114 capture, biotin-AMS-32.1 probe; sc-IA^d/OVA from insect cell culture (positive control).

soluble sc-DR2/MBP-Cκ fusion molecule (human kappa constant domain) from pDRHK-transfected CHO cells (human), sequence (P02686 other isoform, or with tags, fused parts or gaps): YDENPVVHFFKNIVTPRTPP

In the case of L243 mAb (ATCC HB-55) (antibody), the ELISA Readings (Absorbance) is 0.434 in experiment [1], 0.245 in [2], 1.45 in experiment [3] and 1.06 in experiment [4].

As for “T-cell receptor of the murine T-cell hybridoma DO11.10 (TCR)”, the figures for the DO11.10 IL-2 Released (pg/well) in [5], in [6] and in [7] were 500 pg/well, 0 pg/well and 528 pg/well, respectively.

As for “anti-IA^d mAb AMS-32.1 (PharMingen) (antibody)”, the Absorbance worked out at 0.96 in [8], 0.781 in [9] and 2.44 in experiment [10].
